Source: patent US20040138118A1

Molecular target: myostatin pro peptide (wild type) (human) (UniProt O14793)
Test: cell-based or functional assay

Sequence of myostatin pro peptide (wild type) (human) (O14793 24-266): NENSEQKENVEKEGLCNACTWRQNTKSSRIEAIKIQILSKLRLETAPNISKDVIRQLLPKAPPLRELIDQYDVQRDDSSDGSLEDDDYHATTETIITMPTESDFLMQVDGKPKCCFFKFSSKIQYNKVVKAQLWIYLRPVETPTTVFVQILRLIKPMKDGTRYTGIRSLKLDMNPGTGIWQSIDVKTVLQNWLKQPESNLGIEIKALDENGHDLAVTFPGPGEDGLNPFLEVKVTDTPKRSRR

- fraction of the proteolytically-cleaved myostatin complex active in the reporter assay: > 50%
Substance: mammalian Tolloid-like-1 (mTLL-1) (from UniProt O43897 148-1013) (enzyme)
